Blank lines part the entries; values can stand above or below the molecule they belong to.
What was measured:
[1] = target: recombinant HER2 (Acro Biosystems; P/N. H5225) (UniProt P04626); experiment: BLI (Octet), IgG captured on anti-human Fc biosensors, HER2 5-0.078 nM in solution, 37 C, 1:1 global fit, mean of duplicates
[2] = target: recombinant Cathepsin S protein (UniProt P25774); experiment: BLI (Octet), captured IgG, Cathepsin S 200 ng/ml, 25 C; Run 1; Affinity to be determined
[3] = target: recombinant Cathepsin S protein (UniProt P25774); experiment: BLI (Octet), captured IgG, Cathepsin S 200 ng/ml, 25 C; Run 2, second Fsn0503h control row
[4] = target: recombinant Cathepsin S protein (UniProt P25774); experiment: BLI (Octet), captured IgG, Cathepsin S 200 ng/ml, 25 C; Run 1, first Fsn0503h control row
[5] = target: recombinant Cathepsin S protein (UniProt P25774); experiment: BLI (Octet), IgG captured on anti-human biosensors, 200 ng/ml recombinant Cathepsin S, 25 C
[6] = target: recombinant Cathepsin S protein (UniProt P25774); experiment: BLI (Octet), captured IgG, Cathepsin S 200 ng/ml, 25 C; Run 2, Fsn0503h control
[7] = target: recombinant Cathepsin S protein (UniProt P25774); experiment: BLI (Octet), captured IgG, Cathepsin S 200 ng/ml, 25 C; Run 1, Fsn0503h control

Kd [1]: 0.126 nM
Molecule: Wild-Type (antibody having sequence of trastuzumab, transiently expressed in parallel with the variants)

Kd [2]: < 1 pM
koff [2]: < 1e-07 s⁻¹
kon [2]: 45100 M⁻¹ s⁻¹
Molecule: WT (antibody)

Kd [3]: 5.11 nM
koff [3]: 0.000242 s⁻¹
Kd [4]: 3.05 nM
koff [4]: 0.000121 s⁻¹
kon [4]: 39600 M⁻¹ s⁻¹
Kd [5]: 4.45 nM
Kd [6]: 4.39 nM
koff [6]: 0.000188 s⁻¹
kon [6]: 42800 M⁻¹ s⁻¹
Kd [7]: 5.47 nM
koff [7]: 0.000144 s⁻¹
kon [7]: 26200 M⁻¹ s⁻¹
B1: Fsn0503h, humanised anti-Cathepsin S antibody (Fusion Antibodies) (antibody, V domains shown)
VH: EVQLVESGGGLVKPGGSLRLSCAASGFAFSSYDMSWVRQAPGKGLEWVAYITTGGVNTYYPDTVKGRFTISRDNAKNTLYLQMSSLKSEDTAVYYCARHSYFDYWGQGTTVTVSS
VL: DVVMTQSPLSLPVTLGQPASISCRSSQSLVHSNGNTYLHWYLQKPGQSPQLLIYKVSNRFSGVPDRFSGSGSGTDFTLKISRVEAEDVGVYYCSQTTHVPPTFGQGTKLEIK
